{
  "source": "paper PMC10325919",
  "about": "(2023)",
  "target": "T1, E. coli expressed BAHD1(aa:588–780) (UniProt Q8TBE0 588-780)",
  "T1 chain": "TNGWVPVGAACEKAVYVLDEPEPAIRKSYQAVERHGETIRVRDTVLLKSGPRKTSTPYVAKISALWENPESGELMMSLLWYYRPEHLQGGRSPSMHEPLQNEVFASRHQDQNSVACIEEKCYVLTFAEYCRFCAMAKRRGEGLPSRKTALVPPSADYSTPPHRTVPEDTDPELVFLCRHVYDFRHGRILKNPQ",
  "assay": "FP",
  "note": "Starred links: 1 amine or outer side, 2 acyl side, 3 side chain; linkers in the order of their positions; H or OH if unused. Non-standard residues stand in square brackets, D forms with d. No end group written: not given here. Lys(Me3) = C[N+](C)(C)CCCC[C@H](N)C(=O)O; Ethylenediamine = C(CN[*:2])N[*:1]; 5‑FAM = 5-carboxyfluorescein; GABA = NCCCC(=O)O",
  "data": [
    {"binder": "PRKQLATKAAR[Lys(Me3)]SAPATGG-{Ethylenediamine-GABA-5‑FAM}", "note": "[H3 16–35 K27me3 peptide]", "values": [
      {"measurement": "Kd", "result": 700, "unit": "nM"}
    ]}
  ]
}
